# Results published in PMC5701133.
# Molecular target: JMJD6 full-length;BRD4 ET domain (human?;human, UniProt Q6NYC1;O60885 1-403;601-683, |)
# Experiment: thermal shift (DSF); with BRD4 ET; Tm […] C (+[…] C vs JMJD6/ssRNA); DSF: PBS pH 7.4, 1 uM JMJD6, 1 uM oligonucleotide, ET 1-100 uM, SYPRO Orange, 25-95 C at 1 C/min
binder,measurement,value
AUACGAUGCUUUACGGUGCUAUUUUGU (ssRNA) [ssRNA 27-nt],binding result,binds
